Experimental data reported in patent US20150218534A1, “MODIFIED DNA POLYMERASE” (TOYOBO CO., LTD., priority 2012, published 2015).

What was measured:
Type in all cases: biochemical
[1] = tested on: human genomic DNA (about 1.3 kb) with dUTP added; assay: Evaluation of uracil (dUTP) sensitivity by PCR with dUTP added to the reaction; conditions: addition of 0.5 μM of dUTP
Protocol: The uracil sensitivity of the modified DNA polymerase of the present invention can be evaluated by PCR. For example, a dUTP solution is added at a final concentration of 0.5 μM to 200 μM to a common PCR reaction solution containing DNA as a template, a buffer, magnesium, dNTPs, primers, and a DNA polymerase to be evaluated, and thermal cycling is performed. After the reaction, the presence or absence of PCR products is confirmed by ethidium bromide-stained agarose electrophoresis, and the uracil sensitivity can be evaluated by the concentration of accepted dUTP. With a DNA polymerase having high uracil sensitivity, the extension reaction is inhibited by the addition of a small amount of dUTP, and PCR products cannot be confirmed. With a DNA polymerase having low uracil sensitivity, gene amplification by PCR can be confirmed without problem, even if a high concentration of dUTP is added. The modified DNA polymerase with low uracil sensitivity in the present invention refers to a DNA polymerase such that when optimum thermal cycling is performed using any primers and DNA as a template in a reaction buffer optimum for the enzyme, even if a high concentration of dUTP is added, an extension reaction is not inhibited and PCR products can be confirmed, compared to wild-type DNA polymerase, which has no mutation.
More specifically, 10× PCR buffer included in KOD-Plus-Ver. 2 (produced by Toyobo Co. Ltd.) or 10× PCR buffer included in Pfu DNA Polymerase (produced by Agilent) is used; dUTP (produced by Roche) is added to 50 μl of individual reaction solutions containing 1× PCR buffer, 1.5 mM MgSO4, dNTPs (dATP, dTTP, dCTP, and dGTP) in an amount of 0.2 mM, primers represented by SEQ ID NOs: 25 and 26 in an amount of 15 pmol for amplifying about 1.3 kb, 10 ng of human genomic DNA (produced by Roche), and 1 U of each respective enzyme, to final concentrations of 0.5, 5, 50, 100, and 200 μM. PCR is performed using a GeneAmp PCR system 9700 (Applied Biosystems) on the following schedule; preliminary reaction at 94° C. for 30 seconds, followed by 30 cycles, each cycle consisting of 98° C. for 10 seconds, 65° C. for 30 seconds, and 68° C. for 1 minute and 30 seconds. After the completion of each individual reaction, 5 μl of each of the resulting reaction solutions is subjected to agarose electrophoresis, followed by ethidium bromide staining. The uracil sensitivity can be evaluated by confirming amplified DNA fragments of about 1.3 kb under ultraviolet irradiation.
PCR was performed by the following method to evaluate uracil sensitivity. For PCR, components included in KOD-Plus-Ver. 2 (produced by Toyobo Co. Ltd.) were used. dUTP (produced by Roche) was added to 50 μl of individual reaction solutions containing 1× PCR buffer, 1.5 mM MgSO4, dNTPs (dATP, dTTP, dCTP, dGTP) in an amount of 0.2 mM, primers represented by SEQ ID NOs: 25 and 26 in an amount of 15 pmol for amplifying about 1.3 kb, 10 ng of human genomic DNA (produced by Roche), and 1 U of each respective enzyme, to final concentrations of 0.5, 5, 50, 100, and 200 μM. PCR was performed using a GeneAmp PCR system 9700 (produced by Applied Biosystems) on the following schedule: preliminary reaction at 94° C. for 30 seconds, followed by 30 cycles, each cycle consisting of 98° C. for 10 seconds, 65° C. for 30 seconds, and 68° C. for 1 minute and 30 seconds. After the completion of each individual reaction, 5 μl of each of the resulting reaction solutions was subjected to agarose electrophoresis, followed by ethidium bromide staining. Under ultraviolet irradiation, amplified DNA fragments of about 1.3 kb were confirmed. FIGS. 3, 4, 7, and 8 show the results.

[2] = tested on: bisulfite-treated human genomic DNA (MINT1, RAR, THBS1, MINT31); assay: PCR amplification of bisulfite-treated DNA; conditions: 40 cycles (FIG. 12)
Protocol: (§1) Using bisulfite-treated DNA as a template and various primers, the difference in PCR amplification was compared. For comparison, KOD mutant (Y7A/V93K) and KOD (wild-type), each mixed with 1 μg of a KOD antibody per U of the enzyme, and Taq DNA polymerase mixed with an antibody (a mixture of equal amounts of Taq DNA polymerase (produced by Toyobo Co. Ltd.) and Anti-Taq High (produced by Toyobo Co. Ltd.)) were used.
The bisulfite-treated DNA used was human genomic DNA (produced by Roche) that had been treated with a MethylCode Bisulfite Conversion Kit of Invitrogen.
For PCR with the KOD mutant (Y7A/V93K) and PCR with the KOD, a buffer, MgSO4, and dNTPs included in KOD-Plus-Ver. 2 (produced by Toyobo Co. Ltd.) were used. 50 μl of individual reaction solutions containing 1× PCR buffer, 1.5 mM MgSO4, dNTPs (dATP, dTTP, dCTP, dGTP) in an amount of 0.2 mM, primers (SEQ ID NOs: 42 and 43 for amplification of MINT1; SEQ ID NOs: 44 and 45for amplification of RAR; SEQ ID NOs: 46 and 47 for amplification of THBS1; SEQ ID NOs: 48 and 49 for amplification of MINT31) in an amount of 15 pmol, 1 μl of bisulfite-treated DNA extract, and 1 U of each respective enzyme mixed with the antibody were used. PCR was performed using a GeneAmp PCR system 9700 (Applied Biosystems) on the following schedule: preliminary reaction at 94° C. for 2 minutes, followed by 40 cycles, each cycle consisting of 98° C. for 10 seconds, 55° C. for 15 seconds, and 68° C. for 1 minute.
For PCR with the Taq DNA polymerase, 50 μl of a reaction solution containing 1× buffer included in Blend Taq (product of Toyobo), dNTPs (dATP, […], dCTP, dGTP) in an amount of 0.2 mM, primers in an amount of 15 pmol (the same as above), 1 μl of bisulfite-treated DNA extract, and 2.5 U of the enzyme mixed with the antibody was used. […]
(§2) After the completion of each individual reaction, each of the resulting reaction solutions was analyzed using a DNA-1000 kit for MultiNA (produced by Shimadzu Corporation) to confirm amplified DNA fragments.

[3] = tested on: Psychrobacter DNA; assay: PCR amplification using inosine-containing primers; conditions: primers 75 pmol or 150 pmol, 35 cycles (FIG. 11)
Protocol: as §1, with “inosine-containing” for “bisulfite-treated DNA as a template and various”, “mutants” for “mutant (Y7A/V93K)”
For PCR with the KOD mutants and PCR with the KOD, a buffer, MgSO4, and dNTPs included in KOD-Plus-Ver. 2 (produced by Toyobo Co. Ltd.) were used. 50 μl of individual reaction solutions containing 1× PCR buffer, 1.5 mM MgSO4, dNTPs (dATP, dTTP, dCTP, dGTP) in an amount of 0.2 mM, primers (SEQ ID NOs: 40 and 41) in an amount of 75 pmol or 150 pmol, 100 ng of Psychrobacter DNA, and 1 U of each respective enzyme mixed with the antibody were used. PCR was performed using a GeneAmp PCR system 9700 (Applied Biosystems) on the following schedule: preliminary reaction at 94° C. for 2 minutes, followed by 35 cycles, each cycle consisting of 98° C. for 10 seconds, 54° C. for 10 seconds, and 68° C. for 1 minute.
For PCR with the Taq DNA polymerase, 50 μl of a reaction solution containing 1× buffer included in Blend Taq (product of Toyobo), dNTPs (dATP, […], dCTP, dGTP) in an amount of 0.2 mM, primers in an amount of 75 pmol or 150 pmol (the same as above), 100 ng of Psychrobacter DNA, and 2.5 U of the enzyme mixed with the antibody was used. PCR was performed using a GeneAmp PCR system 9700 (Applied Biosystems) on the following schedule: preliminary reaction at 94° C. for 2 minutes, followed by 35 cycles, each cycle consisting of 94° C. for 30 seconds, 54° C. for 30 seconds, and 68° C. for 1 minute.
as §2

B1: KOD (wild-type): wild-type DNA polymerase from Thermococcus kodakaraensis (KOD) (protein, listed as Thermococcus kodakaraensis)
chain: MILDTDYITEDGKPVIRIFKKENGEFKIEYDRTFEPYFYALLKDDSAIEEVKKITAERHGTVVTVKRVEKVQKKFLGRPVEVWKLYFTHPQDVPAIRDKIREHPAVIDIYEYDIPFAKRYLIDKGLVPMEGDEELKMLAFDIETLYHEGEEFAEGPILMISYADEEGARVITWKNVDLPYVDVVSTEREMIKRFLRVVKEKDPDVLITYNGDNFDFAYLKKRCEKLGINFALGRDGSEPKIQRMGDRFAVEVKGRIHFDLYPVIRRTINLPTYTLEAVYEAVFGQPKEKVYAEEITTAWETGENLERVARYSMEDAKVTYELGKEFLPMEAQLSRLIGQSLWDVSRSSTGNLVEWFLLRKAYERNELAPNKPDEKELARRRQSYEGGYVKEPERGLWENIVYLDFRSLYPSIIITHNVSPDTLNREGCKEYDVAPQVGHRFCKDFPGFIPSLLGDLLEERQKIKKKMKATIDPIERKLLDYRQRAIKILANSYYGYYGYARARWYCKECAESVTAWGREYITMTIKEIEEKYGFKVIYSDTDGFFATIPGADAETVKKKAMEFLKYINAKLPGALELEYEGFYKRGFFVTKKKYAVIDEEGKITTRGLEIVRRDWSEIAKETQARVLEALLKDGDVEKAVRIVKEVTEKLSKYEVPPEKLVIHEQITRDLKDYKATGPHVAVAKRLAARGVKIRPGTVISYIVLKGSGRIGDRAIPFDEFDPTKHKYDAEYYIENQVLPAVERILRAFGYRKEDLRYQKTRQVGLSAWLKPKGT
PCR products on addition of dUTP [1]: no PCR products were confirmed
amplification of bisulfite-treated DNA [2]: not amplified
amplification with inosine-containing primers [3]: not amplified
